The series deals with the molecule itself. Nature of the series: cryo-EM structure.

B1: human PANX1 W74A mutant (natural protein)
chain: MAIAQLATEYVFSDFLLKEPTEPKFKGLRLELAVDKMVTCIAVGLPLLLISLAFAQEISIGTQISCFSPSSFSARQAAFVDSYCWAAVQQKNSLQSESGNLPLWLHKFFPYILLLFAILLYLPPLFWRFAAAPHICSDLKFIMEELDKVYNRAIKAAKSARDLDMRDGACSVPGVTENLGQSLWEVSESHFKYPIVEQYLKTKKNSNNLIIKYISCRLLTLIIILLACIYLGYYFSLSSLSDEFVCSIKSGILRNDSTVPDQFQCKLIAVGIFQLLSVINLVVYVLLAPVVVYTLFVPFRQKTDVLKVYEILPTFDVLHFKSEGYNDLSLYNLFLEENISEVKSYKCLKVLENIKSSGQGIDPMLLLTNLGMIKMDVVDGKTPMSAEMREEQGNQTAELQGMNIDSETKANNGEKNARQRLLDSSC
For B1, the binding result was “binds”.

Values taken from paper PMC12698695 (Nature Communications, 2025).
